Test results from doi:10.1101/2021.02.05.428650 (bioRxiv, 2021).
“And” between values parts separate entries of the source, which are not always exact repeats. Equal entries are not always repeated.

Biological target: the molecule itself
Assay: SDS-PAGE and Western blot after detergent removal

Question: How did the “stoichiometry N” value turn out when MIELSLIDFYLCFLAFLLFLVLIMLIIFWFSLELQDHNETCHA (natural protein) [ORF7b from SARS-CoV-2] was run?
Answer: ≤ 10 and 5
